In the test the target is SIRPα of non-obese diabetic (NOD) mice (mouse (NOD strain)) (UniProt O89094). Put plainly: cell-based or functional assay.
UniProt O89094, sequence (O89094 168-257): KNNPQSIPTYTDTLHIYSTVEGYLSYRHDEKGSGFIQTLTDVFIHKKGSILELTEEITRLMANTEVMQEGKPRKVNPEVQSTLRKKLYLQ

Regarding “human CD47 on lentiviral vector (LV) particles (from UniProt Q08722 19-323) (receptor)”, the LV copies in plasmacytoid dendritic cells (pDC), NOD versus C57BL/6 mice was above 10 fold; the LV copies per cell (vector copy number, VCN) in sorted hepatocytes, NOD versus C57BL/6 mice is 4 fold; the VCN in liver macrophages, NOD versus C57BL/6 mice amounted to 30 fold; the VCN in spleen, NOD versus C57BL/6 mice was 5 fold.

For the origin of these results see patent US20250376696A1.
